From patent US20100029507

Assays:
[1] = target: bovine serum albumin (UniProt P02769)
[2] = system: kemptide
[3] = target: E. coli malic enzyme-kemptide fusion protein (UniProt P26616)
Sequence of E. coli malic enzyme-kemptide fusion protein (P26616 whole entry, looked up, the tested form may be a part): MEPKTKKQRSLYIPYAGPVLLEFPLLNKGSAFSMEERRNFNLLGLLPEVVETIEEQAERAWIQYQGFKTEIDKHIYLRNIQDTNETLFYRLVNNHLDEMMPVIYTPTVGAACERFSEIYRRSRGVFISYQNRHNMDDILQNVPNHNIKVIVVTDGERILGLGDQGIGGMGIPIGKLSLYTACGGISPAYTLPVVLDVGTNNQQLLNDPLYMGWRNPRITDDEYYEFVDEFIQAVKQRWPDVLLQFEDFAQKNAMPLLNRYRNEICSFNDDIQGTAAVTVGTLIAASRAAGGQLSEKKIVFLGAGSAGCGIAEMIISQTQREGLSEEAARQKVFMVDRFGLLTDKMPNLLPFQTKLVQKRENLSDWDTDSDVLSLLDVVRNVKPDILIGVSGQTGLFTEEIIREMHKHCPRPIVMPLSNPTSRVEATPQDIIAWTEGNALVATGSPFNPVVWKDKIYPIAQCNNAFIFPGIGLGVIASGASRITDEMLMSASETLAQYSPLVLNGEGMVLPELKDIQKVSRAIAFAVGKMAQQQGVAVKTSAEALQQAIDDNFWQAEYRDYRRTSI

Sequence of bovine serum albumin (P02769 25-607): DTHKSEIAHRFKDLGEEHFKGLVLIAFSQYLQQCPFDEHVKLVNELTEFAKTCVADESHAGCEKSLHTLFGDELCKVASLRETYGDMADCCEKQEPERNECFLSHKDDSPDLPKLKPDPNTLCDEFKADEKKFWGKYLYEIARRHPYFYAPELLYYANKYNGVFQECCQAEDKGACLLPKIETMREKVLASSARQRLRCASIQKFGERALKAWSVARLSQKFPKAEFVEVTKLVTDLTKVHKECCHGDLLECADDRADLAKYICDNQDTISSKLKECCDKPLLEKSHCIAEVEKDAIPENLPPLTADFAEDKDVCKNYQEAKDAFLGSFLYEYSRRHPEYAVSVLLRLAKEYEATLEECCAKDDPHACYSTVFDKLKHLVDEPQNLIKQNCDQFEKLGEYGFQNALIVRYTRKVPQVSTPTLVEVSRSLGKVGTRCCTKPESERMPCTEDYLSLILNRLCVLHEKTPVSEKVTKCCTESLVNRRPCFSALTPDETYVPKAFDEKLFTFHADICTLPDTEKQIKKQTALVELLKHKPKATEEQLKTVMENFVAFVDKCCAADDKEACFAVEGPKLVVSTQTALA

cAMP-dependent protein kinase
phosphorylation with [gamma-32P]ATP on the biochip, X-ray film [1]: no signal was observed on No. 1 BSA spot selected as a negative control | phosphorylation with [gamma-32P]ATP on the biochip after different blocking solutions or none [2]: clear spots were observed not only when 1% BSA was treated but also when 1% glycine and 10% glycerol were treated | phosphorylation with [gamma-32P]ATP on the biochip, X-ray film [2]: spot signals were clearly confirmed on the malic enzyme-kemptide fusion protein or kemptide spot | phosphorylation with [gamma-32P]ATP on the biochip, X-ray film against image plate (IP) [2]: signals were clearly detected on IP film even with short sensitization time | phosphorylation with [gamma-32P]ATP on the biochip after different blocking solutions or none [3]: clear spots were observed not only when 1% BSA was treated but also when 1% glycine and 10% glycerol were treated | phosphorylation with [gamma-32P]ATP on the biochip, X-ray film [3]: spot signals were clearly confirmed on the malic enzyme-kemptide fusion protein or kemptide spot
